# Laboratory results reported in patent publication US20100004431A1 (Xencor, published 2010).
# Positions count from the first letter of the chain named. Numbers in names are those of the source. Where two headings read alike, the source gives them in different places.
# T1: CD25 (R&D systems cat. #223-2A/CF) (UniProt P01589 22-213, limits assumed)
# T1 construct: Bought soluble protein
# T1 sequence (looked up): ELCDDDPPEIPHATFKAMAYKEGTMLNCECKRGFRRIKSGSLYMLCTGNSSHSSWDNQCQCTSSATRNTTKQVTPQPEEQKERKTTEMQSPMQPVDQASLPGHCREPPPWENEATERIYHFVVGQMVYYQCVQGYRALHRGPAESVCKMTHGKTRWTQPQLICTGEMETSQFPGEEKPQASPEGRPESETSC
# B1: anti-CD25 H1.1L1 (antibody, V domains shown)
# VH: QVQLVQSGAEVKKPGASVKVSCKASGYTFTSYRMHWVRQAPGQGLEWMGYINPSTGYTEYNQKFQGRVTITRDKSISTAYMELSRLRSDDTAVYYCARGGGVFDYWGQGTLVTVSS
# VL: QIVLTQSPATLSLSPGERATLSCRASSSISYMHWFQQKPGQSPQLLIYTTSNLASGVPARFSGSGSGTDYTLTISSLQPEDFAVYYCHQRSTYPLTFGSGTKLEIK
# notes: Single variant in the anti-CD25 H1L1 background; also called VH A71R single variant
# B2: anti-CD25 H1.22L1.48 (antibody, V domains shown)
# VH: B1 VH with Y50W, S54N, T55S, Y57G, E59N, N61A, K74T
# VL: EIVLTQSPATLSLSPGERATLSCRASQSVSYMHWYQQKPGQAPRLLIYTTSNRATGIPARFSGSGSGTDFTLTISSLEPEDFAVYYCHQRSTYPLTFGSGTKLEIK
# B3: anti-CD25 H1.12L1.56 (antibody, V domains shown)
# VH: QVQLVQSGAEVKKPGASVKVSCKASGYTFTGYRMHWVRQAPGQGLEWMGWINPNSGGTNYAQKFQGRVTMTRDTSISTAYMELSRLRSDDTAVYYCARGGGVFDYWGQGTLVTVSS
# VL: B2 VL with E1Q, M32L, Y35F, A42S, R44Q
# B4: anti-CD25 H1.22L1.20 (antibody, V domains shown)
# VH: B1 VH with Y50W, S54N, T55S, Y57G, E59N, N61A, K74T
# VL: B2 VL with M32L
# B5: anti-CD25 H1.14L1.43 (antibody, V domains shown)
# VH: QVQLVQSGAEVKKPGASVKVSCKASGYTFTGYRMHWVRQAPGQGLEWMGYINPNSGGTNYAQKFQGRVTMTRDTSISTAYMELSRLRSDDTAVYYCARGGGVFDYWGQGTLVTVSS
# VL: B2 VL with M32L, F70Y, E78Q
# B6: anti-CD25 H1.14L1.56 (antibody, V domains shown)
# VH: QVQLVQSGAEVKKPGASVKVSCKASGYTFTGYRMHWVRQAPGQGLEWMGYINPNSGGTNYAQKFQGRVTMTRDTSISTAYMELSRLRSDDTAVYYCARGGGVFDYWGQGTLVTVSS
# VL: B2 VL with E1Q, M32L, Y35F, A42S, R44Q
# B7: anti-CD25 H1.12L1.43 (antibody, V domains shown)
# VH: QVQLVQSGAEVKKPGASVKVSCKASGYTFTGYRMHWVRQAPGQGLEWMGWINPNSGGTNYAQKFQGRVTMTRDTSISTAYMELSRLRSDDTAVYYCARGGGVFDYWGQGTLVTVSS
# VL: B2 VL with M32L, F70Y, E78Q
# B8: anti-CD25 H1.23L1.56 (antibody, V domains shown)
# VH: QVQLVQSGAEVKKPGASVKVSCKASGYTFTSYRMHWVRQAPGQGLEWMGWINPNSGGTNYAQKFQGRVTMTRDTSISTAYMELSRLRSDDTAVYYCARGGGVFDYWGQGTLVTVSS
# VL: B2 VL with E1Q, M32L, Y35F, A42S, R44Q
# B9: anti-CD25 H1.22L1.56 (antibody, V domains shown)
# VH: B1 VH with Y50W, S54N, T55S, Y57G, E59N, N61A, K74T
# VL: B2 VL with E1Q, M32L, Y35F, A42S, R44Q
# B10: anti-CD25 H1.22L1.43 (antibody, V domains shown)
# VH: B1 VH with Y50W, S54N, T55S, Y57G, E59N, N61A, K74T
# VL: B2 VL with M32L, F70Y, E78Q
# B11: anti-CD25 H1L1.9 (antibody, V domains shown)
# VH: B1 VH with R72A
# VL: B1 VL with S42A
# notes: Single variant in the anti-CD25 H1L1 background; also called VL S43A single variant
# B12: anti-CD25 H1L1.13 (antibody, V domains shown)
# VH: B1 VH with R72A
# VL: B1 VL with V57I
# notes: Single variant in the anti-CD25 H1L1 background; also called VL V58I single variant
# B13: anti-CD25 H1L1.16 (antibody, V domains shown)
# VH: B1 VH with R72A
# VL: B1 VL with F35Y
# notes: Single variant in the anti-CD25 H1L1 background; also called VL F36Y single variant
# B14: anti-CD25 H1L1.56 (antibody, V domains shown)
# VH: B1 VH with R72A
# VL: B2 VL with E1Q, M32L, Y35F, A42S, R44Q
# notes: the fourth VL chain; also called VL combination variant L1.56 paired with H1
# B15: anti-CD25 H1L1.7 (antibody, V domains shown)
# VH: B1 VH with R72A
# VL: B1 VL with Q78E
# notes: Single variant in the anti-CD25 H1L1 background; also called VL Q79E single variant
# B16: anti-CD25 H1L1.5 (antibody, V domains shown)
# VH: B1 VH with R72A
# VL: B1 VL with Q1E
# notes: Single variant in the anti-CD25 H1L1 background; also called VL Q1E single variant
# B17: anti-CD25 H1L1.48 (antibody, V domains shown)
# VH: B1 VH with R72A
# VL: B2 VL
# notes: also called VL combination variant L1.48 paired with H1
# B18: anti-CD25 H1L1.6 (antibody, V domains shown)
# VH: B1 VH with R72A
# VL: B1 VL with Q44R
# notes: Single variant in the anti-CD25 H1L1 background; also called VL Q45R single variant
# B19: anti-CD25 H1L1.43 (antibody, V domains shown)
# VH: B1 VH with R72A
# VL: B2 VL with M32L, F70Y, E78Q
# notes: also called VL combination variant L1.43 paired with H1
# B20: anti-CD25 H1L1.14 (antibody, V domains shown)
# VH: B1 VH with R72A
# VL: B1 VL with Y70F
# notes: Single variant in the anti-CD25 H1L1 background; also called VL Y71F single variant
# B21: anti-CD25 H1L1.20 (antibody, V domains shown)
# VH: B1 VH with R72A
# VL: B2 VL with M32L
# notes: also called VL combination variant L1.20 paired with H1
# B22: anti-CD25 H1.4L1 (antibody, V domains shown)
# VH: B1 VH with R72A, K74T
# VL: B1 VL
# notes: Single variant in the anti-CD25 H1L1 background; also called VH K73T single variant
# B23: anti-CD25 H1.14L1.48 (antibody, V domains shown)
# VH: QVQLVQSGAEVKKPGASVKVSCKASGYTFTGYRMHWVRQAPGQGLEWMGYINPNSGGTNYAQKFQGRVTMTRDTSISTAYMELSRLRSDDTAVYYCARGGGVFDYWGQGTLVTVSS
# VL: B2 VL
# B24: anti-CD25 H1.23L1.48 (antibody, V domains shown)
# VH: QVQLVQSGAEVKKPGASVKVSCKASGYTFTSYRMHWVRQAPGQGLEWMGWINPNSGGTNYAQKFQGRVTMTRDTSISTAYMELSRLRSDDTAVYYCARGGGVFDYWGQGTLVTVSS
# VL: B2 VL
# B25: anti-CD25 H1.23L1.20 (antibody, V domains shown)
# VH: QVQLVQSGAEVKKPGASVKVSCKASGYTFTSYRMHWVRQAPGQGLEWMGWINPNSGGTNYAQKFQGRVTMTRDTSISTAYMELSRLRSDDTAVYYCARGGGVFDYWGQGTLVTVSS
# VL: B2 VL with M32L
# How the values were obtained:
# [1] = molecular target: T1, CD25 (R&D systems cat. #223-2A/CF); assay: Biacore (SPR); antibody captured on Protein A, CD25 injected
# Protocol: (§1) Binding was measured by injection of two-fold serial dilutions of CD25 (0 nM to 50 nM; R&D systems) in buffer at 25° C. with a flow rate of 25-30 μL/min for 2 min followed by a dissociation phase of 4-5 min. Association rates (kₒₙ) and dissociation rates (koff) were calculated using a simple one-to-one Langmuir binding model (BIAcore Evaluation Software version 3.2). The equilibrium dissociation constant (Kd) was calculated as the ratio of koff/kₒₙ).
# [2] = molecular target: T1, CD25 (R&D systems cat. #223-2A/CF); assay: as above; remark: listed apart in the source
# Protocol: as §1
Binder,Fold change in Kd vs. H1L1 [1] [fold],Kd [1] [nM],koff [1] [s⁻¹],kon [1] [M⁻¹ s⁻¹],Fold change in Kd vs. H0L0 [2] [fold],Kd [2] [nM],koff [2] [s⁻¹],kon [2] [M⁻¹ s⁻¹]
B1,2,0.16,0.00031,1.9e+06,–,–,–,–
B2,–,–,–,–,1.5,0.17,0.00014,780000
B3,–,–,–,–,1.2,0.21,0.00018,850000
B4,–,–,–,–,1.1,0.24,0.00018,720000
B5,–,–,–,–,-1.3,0.32,0.00022,670000
B6,–,–,–,–,1.6,0.16,0.00017,1e+06
B7,–,–,–,–,1.4,0.19,0.00014,720000
B8,–,–,–,–,1.2,0.21,0.0002,950000
B9,–,–,–,–,1.2,0.22,0.00022,970000
B10,–,–,–,–,-1.1,0.3,0.00019,640000
B11,1,0.31,0.00058,1.9e+06,–,–,–,–
B12,-1.1,0.35,0.0006,1.7e+06,–,–,–,–
B13,1.2,0.26,0.00042,1.6e+06,–,–,–,–
B14,–,–,–,–,-5,1.3,0.0007,540000
B15,1.2,0.28,0.00054,2e+06,–,–,–,–
B16,1.1,0.29,0.00052,1.8e+06,–,–,–,–
B17,–,–,–,–,-2.4,0.63,0.00031,500000
B18,1,0.32,0.00057,1.8e+06,–,–,–,–
B19,–,–,–,–,-5,1.3,0.00053,410000
B20,1.2,0.27,0.00048,1.8e+06,–,–,–,–
B21,–,–,–,–,-4.2,1.1,0.00048,430000
B22,1.1,0.3,0.0006,2e+06,–,–,–,–
B23,–,–,–,–,1.2,0.21,0.00017,790000
B24,–,–,–,–,1.1,0.23,0.00018,750000
B25,–,–,–,–,1.2,0.22,0.00016,710000
